## GST-SASPase C27 mutant E/D (aspartic acid No. 212 substituted to glutamic acid)
  autocleavage in acetate buffer pH 4.5, SDS-PAGE over time: The mutated forms (A/D) and (E/D), for their part, do not autoactivate

## GST-SASPase C27 mutant A/D (aspartic acid No. 212 substituted to alanine)
  autocleavage in acetate buffer pH 4.5, SDS-PAGE over time: The mutated forms (A/D) and (E/D), for their part, do not autoactivate
